The values below are quoted from earlier work in patent EP3906935A1, “PEPTIDES FOR PREVENTING OR TREATING VIRAL INFECTIONS” (SORBONNE UNIVERSITE, priority 2020, dated 2021).

For this data set the following is noted: N- and C-protected peptide; experimental data reported by Zhou et al.

As to “Ac-EAEKAAKEAEKAAKEAEK-NH2 [SEQ ID NO: 146, peptide of eighteen residues with N- and C-protected extremities previously built by Zhou et al]”, the “content of amphipathic helical structure in solution” value is 65%.
